For test [1], the target named is human BDCA2 on cells (293FT-BDCA2 stable transfectant) (human) (UniProt Q8WTT0). The experiment in a line: flow cytometry (FACS) on 293FT-BDCA2 cells. (In general: Flow cytometry measures light scatter and fluorescence of single cells or particles in a stream.)
For test [2] the target is unchanged. Description: flow cytometry (FACS) on 293FT-BDCA2 cells. This is another data set of the same source.
For test [3], the target named is T1, human BDCA2-his protein (human, UniProt Q8WTT0 45-213).
T1 construct: also called BDCA2-his antigen protein
T1 sequence: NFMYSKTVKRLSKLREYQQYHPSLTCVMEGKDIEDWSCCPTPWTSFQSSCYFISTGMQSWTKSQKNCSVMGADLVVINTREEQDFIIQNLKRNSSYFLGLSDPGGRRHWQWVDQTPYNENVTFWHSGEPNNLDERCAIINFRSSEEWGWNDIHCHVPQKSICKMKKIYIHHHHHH
Description: SPR, Biacore 8K, antibody captured on Protein A chip, BDCA2-his as analyte. (In general: SPR reads the build-up and loss of mass on a sensor chip optically.)

A further test has as its target T2, human BDCA2-Fc protein (human, UniProt Q8WTT0 45-213).
T2 sequence: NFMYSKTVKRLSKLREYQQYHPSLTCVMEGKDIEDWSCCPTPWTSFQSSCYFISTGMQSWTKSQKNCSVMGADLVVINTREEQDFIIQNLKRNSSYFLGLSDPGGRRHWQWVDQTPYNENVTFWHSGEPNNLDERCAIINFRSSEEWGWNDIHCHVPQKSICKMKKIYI
The experiment in a line: ELISA, BDCA2-Fc coated at 1 ug/mL. Background: ELISA stands for enzyme-linked immunosorbent assay.

The target in test [4] is T3, human BDCA2 on cells (293FT-BDCA2 stable transfectant) (human, UniProt Q8WTT0 1-213).
T3 construct: whole, on cells; Also used here as the target for the PBMC assays, where native BDCA2 stands on pDCs; also called CLEC4C
T3 sequence (looked up): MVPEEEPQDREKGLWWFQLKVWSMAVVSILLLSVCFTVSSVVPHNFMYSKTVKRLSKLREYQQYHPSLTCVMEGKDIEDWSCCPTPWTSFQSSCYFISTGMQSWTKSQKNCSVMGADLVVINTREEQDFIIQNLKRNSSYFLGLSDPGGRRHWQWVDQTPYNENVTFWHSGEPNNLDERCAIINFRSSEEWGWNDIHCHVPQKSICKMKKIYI
Description: flow cytometry (FACS) on 293FT-BDCA2 cells.

Test [5] addresses T1, human BDCA2-his protein. Description: ELISA, BDCA2-his coated at 0.1 ug/mL, anti-human Fc HRP.

We go through 20 molecules from patent EP4725965A1 (Sunshine Guojian Pharmaceutical (Shanghai) Co., Ltd., dated 2026).

Numbering of substitutions follows the chain as printed. Where two headings read alike, the source gives them in different places.

Turning to “positive control antibody Litifilimab (BIIB059, 24F4A)”, the EC50 was 0.103 µg/mL in test [1], 0.124 µg/mL in test [2], 0.0346 µg/mL in the test with human BDCA2-Fc protein and 0.0463 µg/mL in the test with human BDCA2-Fc protein (record 2). Further, the Kd with human BDCA2-his protein [3] is 0.087 nM. Further, the koff in the test with human BDCA2-his protein [3] was 0.000121 s⁻¹. In the test with human BDCA2-his protein [3], this molecule came in with a kon of 1.39e+06 M⁻¹ s⁻¹.

B1: 23C10A6B5 (antibody, V domains shown)
VH: QVQLQQPGADLVKPGASVMMSCKASGYTFTSYIIHWVKQTPGQGLEWIGTIYPGNGDTSYNQKFKGKATLTADKSSSTAYMQLSSLTSEDSAVYYCARMGDNEYFDYWGQGTTLTVSS
VL: DIQMTQSPASLSASVGETVTITCRASGNIHNYLAWYQQKQGKSPQLLVYDAETLADGVPSRFSGSGSGTQYSLNINSLQPEDFGSFYCQHFWSTPYTFGGGTKLEIK
notes: Murine monoclonal antibody from hybridoma; also called hybridoma clone 23C10A6B5
For the molecule B1, the EC50 in test [4] was determined as 0.0835 µg/mL; with human BDCA2-Fc protein, 0.0201 µg/mL.

B2: humanized antibody 230 (antibody, V domains shown)
VH: QVQLVQSGAEVKKPGASVKVSCKASGYTFTSYIIHWVRQAPGQGLEWMGTIYPGNGDTSYNQKFKGRVTMTRDTSTSTVYMELSSLRSEDTAVYYCARMGDNEYFDYWGQGTLVTVSS
VL: DIQMTQSPSSLSASVGDRVTITCRASGNIHNYLAWYQQKPGKAPKLLLYDAETLADGVPSRFSGSGSGTDYTLTISSLQPEDFATYYCQHFWSTPYTFGGGTKVEIK
notes: Human IgG1 constant region and human kappa chain constant region; also called 230 antibody; parental monoclonal antibody 230
In the test with human BDCA2-his protein [3], B2 came in with a Kd of 0.0768 nM, a koff of 0.00131 s⁻¹ and a kon of 1.7e+07 M⁻¹ s⁻¹.

B3: antibody 237011 (antibody, human IgG1, V domains shown)
VH: B2 VH with I33L, N55G
VL: B2 VL with D56E
In the test with human BDCA2-his protein [3], B3 returned a Kd of 0.0259 nM, a koff of 0.000652 s⁻¹ and a kon of 2.52e+07 M⁻¹ s⁻¹.

B4: 230-N55S (antibody, V domains shown)
VH: B2 VH with N55S
VL: B2 VL
notes: Single-point mutant of humanized antibody 230 (human IgG1/kappa)
With B4, in the test with human BDCA2-his protein [5], the binding result is “binds”.

B5: 230-N55R (antibody, V domains shown)
VH: B2 VH with N55R
VL: B2 VL
notes: as for B4
In the case of B5, the binding result with human BDCA2-his protein [5] is “binds”.

B6: 230IL-NR-DI (antibody, V domains shown)
VH: B2 VH with I33L, N55R
VL: B2 VL with D56I
notes: Linked to the constant region of the IgG1 subtype
Consider B6, for which the binding result in the test with human BDCA2-his protein [5] is listed as “binds”.

B7: 230NR-DE (antibody, V domains shown)
VH: B2 VH with N55R
VL: B2 VL with D56E
notes: as for B6
For the molecule B7, in the test with human BDCA2-his protein [5], the binding result is “binds”.

B8: 230-N55A (antibody, V domains shown)
VH: B2 VH with N55A
VL: B2 VL
notes: as for B4
As to B8, the binding result with human BDCA2-his protein [5] is “binds”.

B9: antibody 2391 (antibody, human IgG1, V domains shown)
VH: B2 VH with N55G
VL: B2 VL with D56E
Consider B9, for which, in the test with human BDCA2-his protein [3], binding was put at a Kd of 0.0357 nM, the koff turned out to be 0.000874 s⁻¹ and the kon was determined as 2.44e+07 M⁻¹ s⁻¹.

B10: 230IL-NG-DI (antibody, V domains shown)
VH: B2 VH with I33L, N55G
VL: B2 VL with D56I
notes: as for B6
In the case of B10, the binding result with human BDCA2-his protein [5] is reported as “binds”.

B11: 230NR-DI (antibody, V domains shown)
VH: B2 VH with N55R
VL: B2 VL with D56I
notes: as for B6
In the case of B11, the binding result with human BDCA2-his protein [5] is “binds”.

B12: antibody 230 mutant with light chain CDR2 DAETLAD changed to DAETLAE (antibody, V domains shown)
VH: B2 VH
VL: B2 VL with D56E
notes: Single-point mutant of humanized antibody 230; also called 230 antibody-DE
For B12, in the test with human BDCA2-his protein [5], the binding result is “binds”.

B13: 230-I33L (antibody, V domains shown)
VH: B2 VH with I33L
VL: B2 VL
notes: as for B4
With B13, the binding result with human BDCA2-his protein [5] is recorded as “binds”.

B14: 230IL-NR-DE (antibody, V domains shown)
VH: B2 VH with I33L, N55R
VL: B2 VL with D56E
notes: as for B6
For the molecule B14, the binding result with human BDCA2-his protein [5] is “binds”.

B15: 230IL-DI (antibody, V domains shown)
VH: B2 VH with I33L
VL: B2 VL with D56I
notes: as for B6
As for B15, the binding result with human BDCA2-his protein [5] is on record as “binds”.

B16: antibody 230 mutant with light chain CDR2 DAETLAD changed to DAETLAI (antibody, V domains shown)
VH: B2 VH
VL: B2 VL with D56I
notes: Single-point mutant of humanized antibody 230; also called 230 antibody-DI
For the molecule B16, in the test with human BDCA2-his protein [5], the binding result is listed as “binds”.

B17: 230NG-DI (antibody, V domains shown)
VH: B2 VH with N55G
VL: B2 VL with D56I
notes: as for B6
B17: the binding result in the test with human BDCA2-his protein [5] was “binds”.

B18: 230IL-DE (antibody, V domains shown)
VH: B2 VH with I33L
VL: B2 VL with D56E
notes: as for B6
Consider B18, for which the binding result in the test with human BDCA2-his protein [5] was “binds”.

B19: 230-N55G (antibody, V domains shown)
VH: B2 VH with N55G
VL: B2 VL
notes: as for B4
Regarding B19, the binding result with human BDCA2-his protein [5] is recorded as “binds”.

The EC50 is the concentration that produces a half-maximal response. Low values mean an effect from little substance, high ones a need for much substance. The term Kd denotes a measure of binding affinity in units of concentration. Low values mean a tighter complex, high ones a looser complex. As a reminder, the koff is a measure of how fast the partners let go of each other. Higher therefore signals fast dissociation. By kon is commonly meant the rate constant with which the complex forms. A high value points to fast association.
